Several values for one entry are separate records, joined by “and”; a condition that tells them apart may be missing. Equal values may be shown once.
Key:
Assay type in all cases: binding
[1] = Probe fluorescence ratio response to arachidonic acid relative to ADIFAB2; details: arachidonic acid; response relative to ADIFAB2
Source text: (§1) In an alternate preferred embodiment, the protein is rI-FABP that has Ala substituted for Leu at position 72 (rI-FABP-L72A) with the resulting probe named ADIFAB2. […] Other probes useful in embodiments of the invention are shown in Tables 1-6 and are also described in U.S. application Ser. No. 11/085,792, filed Mar. 21, 2005 which is incorporated herein by reference. The indicated substitutions are with reference to the ADIFAB protein of SEQ ID NO: 2.
(§2) ADIFAB2 also has an altered spectral response, making it especially useful for measurements of FFAu in blood samples (Apple et al, Clinical Proteomics, (2004) 1:41-44, U.S. patent application Ser. No. 10/670,958). The wavelengths at the maximum intensities emitted by these fluorescently-labeled I-FABP's in the absence of FFA is about 420 to 480 nm. The emission wavelengths at the maximum intensities emitted by these fluorescently-labeled I-FABP's with FFA bound are between about 495 to 580 nm. Experiments typically involve measuring the fluorescence response within both emission maxima or at wavelengths for which the effect of interfering molecules such as hemoglobin can be eliminated as described in U.S. application Ser. No. 10/670958 and PCT/US2004/030521 and the calculation of the ratio ‘R’ of the two fluorescence intensities. The baseline value for this ratio, measured in the absence of analyte, is designated R0.
(§3) The intensity ratio (“R” value) is determined as follows. The ratio is calculated using the following formula: R=Fλ1/Fλ2 wherein, Fλ1 is the measured fluorescence intensities (intensity of sample with probe present minus intensity of sample without probe present) at wavelength 1 and Fλ2 is the measured fluorescence intensities (intensity of sample with probe present minus intensity of sample without probe present) at wavelength 2. Then, for a given probe, ΔR, the difference in R value between the measurement in the presence of the test compound (agent) and in the absence of the test compound (agent), is calculated as follows: ΔR=R+agent−R0 In some embodiments, the ΔR value may then be compared to some reference, for example, an agent with a known affinity for a given probe, by ΔR/ΔRreference. Measurements of fluorescence intensities are obtained using standard techniques.

[2] = Probe fluorescence ratio response to linolenic acid relative to ADIFAB2; details: response relative to ADIFAB2
Source text: as §1, §2, §3

[3] = Probe fluorescence ratio response to linoleic acid relative to ADIFAB2; details: response relative to ADIFAB2
Source text: as §1, §2, §3

[4] = Probe fluorescence ratio response to oleic acid relative to ADIFAB2; details: response relative to ADIFAB2
Source text: as §1, §2, §3

[5] = Probe fluorescence ratio response to palmitic acid relative to ADIFAB2; details: response relative to ADIFAB2
Source text: as §1, §2, §3

Row | Molecule | DR/DR AA [1] | DR/DR LNA [2] | DR/DR LA [3] | DR/DR OA [4] | DR/DR PA [5]
1 | 117S, 72A (protein, listed as Rattus norvegicus, PEPTIDE (1)...(131) wild-type rat intestinal fatty acid binding protein) AFDGTWKVDRNENYEKFMEKMGINVVKRKLGAHDNLKLTITQEGNKFTVKESSNFRNIDVVFELGVDFAYSAADGTELTGTWTMEGNKLVGKFKRVDNGKELIAVREISGNELIQTSTYEGVEAKRIFKKE | 1.35 and 1.467 | 1.07 and 1.133 | 1.42 and 1.533 | 1.19 and 1.258 | 0.55 and 0.593
2 | 117Y, 72A (protein, listed as Rattus norvegicus, PEPTIDE (1)...(131) wild-type rat intestinal fatty acid binding protein) AFDGTWKVDRNENYEKFMEKMGINVVKRKLGAHDNLKLTITQEGNKFTVKESSNFRNIDVVFELGVDFAYSAADGTELTGTWTMEGNKLVGKFKRVDNGKELIAVREISGNELIQTYTYEGVEAKRIFKKE | 1.35 | 1.40 | 1.44 | 1.36 | 1.14
3 | 117T, 72A (protein, listed as Rattus norvegicus, PEPTIDE (1)...(131) wild-type rat intestinal fatty acid binding protein) AFDGTWKVDRNENYEKFMEKMGINVVKRKLGAHDNLKLTITQEGNKFTVKESSNFRNIDVVFELGVDFAYSAADGTELTGTWTMEGNKLVGKFKRVDNGKELIAVREISGNELIQTTTYEGVEAKRIFKKE | 0.79 and 0.791 | 0.77 and 0.775 | 0.92 and 0.917 | 0.81 and 0.813 | 0.57 and 0.567
4 | 117V, 72A (protein, listed as Rattus norvegicus, PEPTIDE (1)...(131) wild-type rat intestinal fatty acid binding protein) AFDGTWKVDRNENYEKFMEKMGINVVKRKLGAHDNLKLTITQEGNKFTVKESSNFRNIDVVFELGVDFAYSAADGTELTGTWTMEGNKLVGKFKRVDNGKELIAVREISGNELIQTVTYEGVEAKRIFKKE | 0.82 and 0.805 | 0.81 and 0.767 | 0.94 and 0.924 | 0.81 and 0.774 | 0.49 and 0.498
5 | 117W, 72A (protein, listed as Rattus norvegicus, PEPTIDE (1)...(131) wild-type rat intestinal fatty acid binding protein) AFDGTWKVDRNENYEKFMEKMGINVVKRKLGAHDNLKLTITQEGNKFTVKESSNFRNIDVVFELGVDFAYSAADGTELTGTWTMEGNKLVGKFKRVDNGKELIAVREISGNELIQTWTYEGVEAKRIFKKE | 0.55 and 0.551 | 0.46 and 0.461 | 0.45 and 0.446 | 0.39 and 0.388 | 0.34 and 0.339
6 | 119A, 72A (protein, listed as Rattus norvegicus, PEPTIDE (1)...(131) wild-type rat intestinal fatty acid binding protein) AFDGTWKVDRNENYEKFMEKMGINVVKRKLGAHDNLKLTITQEGNKFTVKESSNFRNIDVVFELGVDFAYSAADGTELTGTWTMEGNKLVGKFKRVDNGKELIAVREISGNELIQTYTAEGVEAKRIFKKE | 0.70 and 0.540 | 0.65 and 0.520 | 0.61 and 0.450 | 0.63 and 0.490 | 0.30 and 0.200
